B1: Hammerhead Ribozyme (parent)
chain: ACCGGAUGUGCUUUCCGGUCUGAUGAGUCCGUGAGGACGAAACAG

In the data set the parent is B1. Nature of the data set: self-cleavage, relative activity (ratio to wild type); higher = more cleavage; co-transcriptional.
Turning to ACCGGAUGUGCUUUCGGGUCUGAUGAGUCCGUGAGGACGAAGCAG [C16G A42G], the self-cleavage stood at 0.346.

Take ACCGGAUGUGCUUUCGGGUCUGAUGAGUCCGUGAGGACGAAUCAG [C16G A42U]: the self-cleavage is 0.26.

For ACCGGAUGUGCUUUCGGGUCUGAUGAGUCCGUGAGGACGAAAGAG [C16G C43G], the self-cleavage stood at 0.265.

With ACCGGAUGUGCUUUCGGGUCUGAUGAGUCCGUGAGGACGAAAAAG [C16G C43A], the self-cleavage was 0.337.

Take ACCGGAUGUGCUUUCGGGUCUGAUGAGUCCGUGAGGACGAAAUAG [C16G C43U]: the self-cleavage was 0.285.

As for ACCGGAUGUGCUUUCGGGUCUGAUGAUUCCGUGAGGACGAAACAG [C16G G27U], the self-cleavage came to 0.304.

Take ACCGGAUGUGCUUUCGGGUCUGAUGAAUCCGUGAGGACGAAACAG [C16G G27A]: the self-cleavage stood at 0.42.

For the variant ACCGGAUGUGCUUUCGGGUCUGAUGACUCCGUGAGGACGAAACAG [C16G G27C], the self-cleavage stood at 0.35.

In the case of ACCGGAUGUGCUUUCAGGUCUGAUGAGUCCGUAAGGACGAAACAG [C16A G33A], the self-cleavage turned out to be 1.29.

In the case of ACCGGAUGUGCUUUCAGGUCUGAUGAGUCCGUCAGGACGAAACAG [C16A G33C], the self-cleavage stood at 1.24.

For ACCGGAUGUGCUUUCAGGUCUGAUGAGUCCGUUAGGACGAAACAG [C16A G33U], the self-cleavage was 1.4.

ACCGGAUGUGCUUUCGGGUCUGAUCAGUCCGUGAGGACGAAACAG [C16G G25C]: the self-cleavage turned out to be 0.285.

ACCGGAUGUGCUUUCGGGUCUGAUAAGUCCGUGAGGACGAAACAG [C16G G25A]: the self-cleavage stood at 0.357.

Take ACCGGAUGUGCUUUCGGGUCUGAUUAGUCCGUGAGGACGAAACAG [C16G G25U]: the self-cleavage came out at 0.384.

For ACCGGAUGUGCUUUCGGGUCUGAUGAGUCCGUGAGGCCGAAACAG [C16G A37C], the self-cleavage came to 0.737.

As for ACCGGAUGUGCUUUCGGGUCUGAUGAGUCCGUGAGGGCGAAACAG [C16G A37G], the self-cleavage is 0.533.

Regarding ACCGGAUGUGCUUUCGGGUCUGAUGAGUCCGUGAGGUCGAAACAG [C16G A37U], the self-cleavage came out at 0.606.

With ACCGGAUGUGCUUUCGGGUCUGAUGAGUCCGUGAGGACGAAACUG [C16G A44U], the self-cleavage was found to be 0.335.

In the case of ACCGGAUGUGCUUUCGGGUCUGAUGAGUCCGUGAGGACGAAACCG [C16G A44C], the self-cleavage turned out to be 0.373.

With ACCGGAUGUGCUUUCGGGUCUGAUGAGUCCGUGAGGACGAAACGG [C16G A44G], the self-cleavage came to 1.18.

Regarding ACCGGAUGUGCUUUCGAGUCUGAUGAGUCCGUGAGGACGAAACAG [C16G G17A], the self-cleavage is 0.532.

With ACCGGAUGUGCUUUCGUGUCUGAUGAGUCCGUGAGGACGAAACAG [C16G G17U], the self-cleavage is 0.681.

ACCGGAUGUGCUUUCGCGUCUGAUGAGUCCGUGAGGACGAAACAG [C16G G17C]: the self-cleavage is 0.445.

For the variant ACCGGAUGUGCUUUCAGGUCUGAUGAGUCCGUGAGUACGAAACAG [C16A G36U], the self-cleavage came to 0.434.

Turning to ACCGGAUGUGCUUUCAGGUCUGAUGAGUCCGUGAGCACGAAACAG [C16A G36C], the self-cleavage amounted to 0.38.

As for ACCGGAUGUGCUUUCAGGUCUGAUGAGUCCGUGAGAACGAAACAG [C16A G36A], the self-cleavage was determined as 0.523.

Regarding ACCGGAUGUGCUUUCGGGUCUGAUGAGUCCGUGAGGACGGAACAG [C16G A40G], the self-cleavage was 0.431.

Consider ACCGGAUGUGCUUUCGGGUCUGAUGAGUCCGUGAGGACGCAACAG [C16G A40C], for which the self-cleavage is 0.372.

With ACCGGAUGUGCUUUCGGGUCUGAUGAGUCCGUGAGGACGUAACAG [C16G A40U], the self-cleavage is 0.321.

Consider ACCGGAUGUGCUUUCAGGUCUGAUGAGUCCAUGAGGACGAAACAG [C16A G31A], for which the self-cleavage was found to be 1.22.

For ACCGGAUGUGCUUUCAGGUCUGAUGAGUCCUUGAGGACGAAACAG [C16A G31U], the self-cleavage was determined as 1.29.

In the case of ACCGGAUGUGCUUUCAGGUCUGAUGAGUCCCUGAGGACGAAACAG [C16A G31C], the self-cleavage worked out at 1.04.

As for ACCGGAUGUGCUUUCGGGUCUCAUGAGUCCGUGAGGACGAAACAG [C16G G22C], the self-cleavage worked out at 0.284.

For ACCGGAUGUGCUUUCGGGUCUUAUGAGUCCGUGAGGACGAAACAG [C16G G22U], the self-cleavage came to 0.334.

With ACCGGAUGUGCUUUCGGGUCUAAUGAGUCCGUGAGGACGAAACAG [C16G G22A], the self-cleavage was found to be 0.336.

With ACCGGAUGUGCUUUCGGGUCUGAUGAGUCCGUGAGGACGAAACAU [C16G G45U], the self-cleavage worked out at 0.467.

As for ACCGGAUGUGCUUUCGGGUCUGAUGAGUCCGUGAGGACGAAACAA [C16G G45A], the self-cleavage is 0.533.

As to ACCGGAUGUGCUUUCGGGUCUGAUGAGUCCGUGAGGACGAAACAC [C16G G45C], the self-cleavage amounted to 0.397.

As to ACCGGAUGUGCUUUCGGGUCUGAUGAGUCCGUGAGGAGGAAACAG [C16G C38G], the self-cleavage was 0.358.

Take ACCGGAUGUGCUUUCGGGUCUGAUGAGUCCGUGAGGAAGAAACAG [C16G C38A]: the self-cleavage came to 0.453.

ACCGGAUGUGCUUUCGGGUCUGAUGAGUCCGUGAGGAUGAAACAG [C16G C38U]: the self-cleavage was determined as 0.619.

On to ACCGGAUGUGCUUUCGGGUGUGAUGAGUCCGUGAGGACGAAACAG [C16G C20G], for which the self-cleavage was determined as 0.317.

ACCGGAUGUGCUUUCGGGUAUGAUGAGUCCGUGAGGACGAAACAG [C16G C20A]: the self-cleavage is 0.336.

On to ACCGGAUGUGCUUUCGGGUUUGAUGAGUCCGUGAGGACGAAACAG [C16G C20U], for which the self-cleavage is 0.408.

Regarding ACCGGAUGUGCUUUCAGGUCUGAUGAGUCCGUGAAGACGAAACAG [C16A G35A], the self-cleavage was determined as 0.727.

On to ACCGGAUGUGCUUUCAGGUCUGAUGAGUCCGUGACGACGAAACAG [C16A G35C], for which the self-cleavage came out at 0.573.

As to ACCGGAUGUGCUUUCAGGUCUGAUGAGUCCGUGAUGACGAAACAG [C16A G35U], the self-cleavage stood at 0.563.

As for ACCGGAUGUGCUUUCGGGUCUGAUGAGUCCGUGAGGACUAAACAG [C16G G39U], the self-cleavage was 0.345.

Take ACCGGAUGUGCUUUCGGGUCUGAUGAGUCCGUGAGGACCAAACAG [C16G G39C]: the self-cleavage stood at 0.368.

Regarding ACCGGAUGUGCUUUCGGGUCUGAUGAGUCCGUGAGGACAAAACAG [C16G G39A], the self-cleavage is 0.254.

Turning to ACCGGAUGUGCUUUCAGGUCUGAUUAGUCCGUGAGGACGAAACAG [C16A G25U], the self-cleavage was 0.331.

Turning to ACCGGAUGUGCUUUCGGGUCUGAUGAGUCCUUGAGGACGAAACAG [C16G G31U], the self-cleavage turned out to be 1.05.

Turning to ACCGGAUGUGCUUUCGGGUCUGAUGAGUCCAUGAGGACGAAACAG [C16G G31A], the self-cleavage came to 1.16.

Regarding ACCGGAUGUGCUUUCGGGUCUGAUGAGUCCCUGAGGACGAAACAG [C16G G31C], the self-cleavage came to 0.823.

For ACCGGAUGUGCUUUCAGGUCUGAUGAGUCCGAGAGGACGAAACAG [C16A U32A], the self-cleavage was 1.07.

Regarding ACCGGAUGUGCUUUCAGGUCUGAUGAGUCCGCGAGGACGAAACAG [C16A U32C], the self-cleavage is 1.09.

Take ACCGGAUGUGCUUUCAGGUCUGAUGAGUCCGGGAGGACGAAACAG [C16A U32G]: the self-cleavage was found to be 0.899.

For the origin of these results see the RNAGym collection of RNA variant scans (doi:10.7554/elife.80360).
